What was measured:
[1] = biological target: human CD2 (CD2 antigen on human PBMC, on COS cells transfected with the entire CD2 molecule, and on CD2-expressing Jurkat cells) (human) (UniProt P06729); test: two-colour flow cytometry of human PBMC, biotinylated LO-CD2a (FL1) and Leu-5b-PE (FL2); upper left quadrant
[2] = biological target: human CD2 (CD2 antigen on human PBMC, on COS cells transfected with the entire CD2 molecule, and on CD2-expressing Jurkat cells) (human) (UniProt P06729); test: two-colour flow cytometry of human PBMC, biotinylated LO-CD2a (FL1) and Leu-5b-PE (FL2); upper right quadrant

Chain of UniProt P06729 (P06729 25-351): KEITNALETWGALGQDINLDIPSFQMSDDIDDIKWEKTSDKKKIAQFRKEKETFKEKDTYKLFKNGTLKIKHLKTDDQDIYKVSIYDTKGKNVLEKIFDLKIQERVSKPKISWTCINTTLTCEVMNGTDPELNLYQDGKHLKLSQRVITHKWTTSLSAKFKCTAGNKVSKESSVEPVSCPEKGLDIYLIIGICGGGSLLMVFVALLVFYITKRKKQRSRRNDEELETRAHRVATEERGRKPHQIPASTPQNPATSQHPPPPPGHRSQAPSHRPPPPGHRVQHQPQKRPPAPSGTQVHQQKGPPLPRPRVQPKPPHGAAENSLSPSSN

- % gated (quadrant 1UL) [1]: 23.2%
- Y mean (quadrant 1UL) [1]: 285
- Y mean (quadrant 2UR) [2]: 631
Substance: Leu-5b, mouse anti-human CD2 monoclonal antibody (Becton Dickinson)

Reference: patent US6849258
